Where “and” joins values, the source holds several entries; their conditions need not be identical. Equal values may be shown once.
Legend:
SETD1A RRM domain [1] = molecular target: T1, SETD1A RRM domain (human, UniProt O15047 89-197); assay: MST; conditions: EMSA: 2 nM biotinylated RNA, LightShift RNA EMSA kit protocol, 30 min room temperature, 6% native PAGE in 0.5x TBE; MST: 40% MST power, LED 20-40%, buffer and …
SETD1A RRM domain [2] = molecular target: T1, SETD1A RRM domain; assay: MST; back diffusion; EMSA: 2 nM biotinylated RNA, LightShift RNA EMSA kit protocol, 30 min room temperature, 6% native PAGE in 0.5x TBE; MST: 40% MST power, LED 20-40%, buffer and temperature not in material; conditions: protein: recombinant; tags: His (pET28-MHL vector, HisTrap purified); label: uniformly labeled (MST)
SETD1A RRM domain [3] = molecular target: T1, SETD1A RRM domain; assay: MST; T-jump; EMSA: 2 nM biotinylated RNA, LightShift RNA EMSA kit protocol, 30 min room temperature, 6% native PAGE in 0.5x TBE; MST: 40% MST power, LED 20-40%, buffer and temperature not in material; conditions: protein: recombinant; tags: His (pET28-MHL vector, HisTrap purified); label: uniformly labeled (MST)
SETD1A RRM domain [4] = molecular target: T1, SETD1A RRM domain; assay: MST; thermophoresis; EMSA: 2 nM biotinylated RNA, LightShift RNA EMSA kit protocol, 30 min room temperature, 6% native PAGE in 0.5x TBE; MST: 40% MST power, LED 20-40%, buffer and temperature not in material; conditions: protein: recombinant; tags: His (pET28-MHL vector, HisTrap purified); label: uniformly labeled (MST)

T1 sequence (O15047 89-197): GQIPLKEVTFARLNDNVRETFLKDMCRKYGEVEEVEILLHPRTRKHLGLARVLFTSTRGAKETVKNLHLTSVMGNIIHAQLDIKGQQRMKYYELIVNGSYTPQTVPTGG

Row | Molecule | Kd (SETD1A RRM domain [1]) | other results
1 | NEAT1_2 (12_13k segment) | 1520 nM and 1890 nM and 1110 nM | –
2 | SCARNA7 | 1280 nM and 310 nM and 1170 nM | –
3 | SETD1A mRNA (N-terminal half coding region) | 210 nM and 60 nM | –
4 | SETD1B mRNA (RRM coding region) | 310 nM | –
5 | SNHG8 | 870 nM and 2190 nM and 1190 nM | –
6 | TP53TG1 | 670 nM and 690 nM and 1050 nM | –
7 | AAGAAUGGCCUCGCGGAGGCAUGCGUCAUGCUAGCGUGCGGGGUACUCUU (ssRNA) [Random50 (R50)] | – | Kd (SETD1A RRM domain [2]): 11800 nM; Kd (SETD1A RRM domain [3]): 15500 nM; Kd (SETD1A RRM domain [4]): 28100 nM
